Measured values: publication PMC4381397, “The recently identified modifier of murine metastable epialleles, Rearranged L-Myc Fusion, is involved in maintaining epigenetic marks at CpG island shores and enhancers”

Target: Gata1CF (UniProt P17679 249-311)
Assay: EMSA; 0.5 and 5 uM protein, 5 nM probe, 10 uM ZnSO4; 10 mM HEPES pH 7.9, 30 mM NaCl, 1 mM MgCl2, 20 uM EDTA, 10 mM DTT, 10 uM ZnSO4, 67 ug/mL acetylated BSA, 4% Ficoll; on ice 30 min
Details: protein: recombinant; label: 5' FAM

Chain of Gata1CF (P17679 249-311): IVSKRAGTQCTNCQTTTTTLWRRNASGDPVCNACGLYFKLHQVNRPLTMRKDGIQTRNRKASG

B1: PP2 pentaprobe (ssDNA)
DNA: TATCTTACTTTAGTTTCATTTAATTGTGTTGTACTCTCCTCTGCGTTCACTTAGCTTAACTTGGTTTGGCTTGATTTGACTTCAGTTGCGCTCTATTCTA
Q: Does B1 bind?
A: binds

B2: PP4 pentaprobe (ssDNA)
DNA: TATCCTACCCATTGGGCTCATCTGATCCATCCGGTCCCGTCCACTCGGCTATGTTATGCTGTATTGCAGTCGTGTCGCGTCGAGCTGCCCTAATCCCACC
Q: Does B2 bind?
A: binds
